First the molecules themselves.
T1: DsRED-tagged Occludin (UniProt Q16625 1-522)
T1 sequence (looked up): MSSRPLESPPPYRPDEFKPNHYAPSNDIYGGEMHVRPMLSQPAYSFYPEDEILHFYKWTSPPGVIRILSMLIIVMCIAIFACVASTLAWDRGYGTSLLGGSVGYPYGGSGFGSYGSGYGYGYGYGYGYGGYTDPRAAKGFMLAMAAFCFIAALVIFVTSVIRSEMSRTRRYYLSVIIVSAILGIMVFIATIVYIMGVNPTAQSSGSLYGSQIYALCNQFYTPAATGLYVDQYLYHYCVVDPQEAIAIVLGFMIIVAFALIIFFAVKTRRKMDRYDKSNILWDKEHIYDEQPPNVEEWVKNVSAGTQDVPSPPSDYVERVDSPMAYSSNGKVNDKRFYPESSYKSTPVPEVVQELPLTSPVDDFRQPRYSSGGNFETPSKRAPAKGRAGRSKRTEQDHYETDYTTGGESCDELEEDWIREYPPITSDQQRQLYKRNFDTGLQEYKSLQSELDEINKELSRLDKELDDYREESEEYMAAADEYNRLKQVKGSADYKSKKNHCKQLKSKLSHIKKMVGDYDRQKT

T2: CD81 tagged with AcGFP or DsRED (UniProt P60033 1-236)
T2 sequence (looked up): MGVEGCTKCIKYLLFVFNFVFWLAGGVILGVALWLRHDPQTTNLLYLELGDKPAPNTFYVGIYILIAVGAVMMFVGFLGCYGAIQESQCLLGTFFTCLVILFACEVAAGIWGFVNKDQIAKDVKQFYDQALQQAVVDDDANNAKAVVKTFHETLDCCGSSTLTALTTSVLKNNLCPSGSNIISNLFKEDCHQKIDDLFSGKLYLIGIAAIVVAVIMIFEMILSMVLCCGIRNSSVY

T3: CD81 tagged with AcGFP or DsRED, P60033
T3 chain: T2 sequence (looked up)

B1: AcGFP-tagged Claudin-17 (natural protein, UniProt P56750 1-224, looked up)
chain: MAFYPLQIAGLVLGFLGMVGTLATTLLPQWRVSAFVGSNIIVFERLWEGLWMNCIRQARVRLQCKFYSSLLALPPALETARALMCVAVALSLIALLIGICGMKQVQCTGSNERAKAYLLGTSGVLFILTGIFVLIPVSWTANIIIRDFYNPAIHIGQKRELGAALFLGWASAAVLFIGGGLLCGFCCCNRKKQGYRYPVPGYRVPHTDKRRNTTMLSKTSTSYV
B2: AcGFP-tagged Claudin-4 (natural protein, UniProt O14493 1-209, looked up)
chain: MASMGLQVMGIALAVLGWLAVMLCCALPMWRVTAFIGSNIVTSQTIWEGLWMNCVVQSTGQMQCKVYDSLLALPQDLQAARALVIISIIVAALGVLLSVVGGKCTNCLEDESAKAKTMIVAGVVFLLAGLMVIVPVSWTAHNIIQDFYNPLVASGQKREMGASLYVGWAASGLLLLGGGLLCCNCPPRTDKPYSAKYSAARSAAASNYV
B3: AcGFP-tagged Claudin-11 (natural protein, UniProt O75508 1-207, looked up)
chain: MVATCLQVVGFVTSFVGWIGVIVTTSTNDWVVTCGYTIPTCRKLDELGSKGLWADCVMATGLYHCKPLVDILILPGYVQACRALMIAASVLGLPAILLLLTVLPCIRMGQEPGVAKYRRAQLAGVLLILLALCALVATIWFPVCAHRETTIVSFGYSLYAGWIGAVLCLVGGCVILCCAGDAQAFGENRFYYTAGSSSPTHAKSAHV
B4: AcGFP-tagged Claudin-9 (natural protein, UniProt O95484 1-217, looked up)
chain: MASTGLELLGMTLAVLGWLGTLVSCALPLWKVTAFIGNSIVVAQVVWEGLWMSCVVQSTGQMQCKVYDSLLALPQDLQAARALCVIALLLALLGLLVAITGAQCTTCVEDEGAKARIVLTAGVILLLAGILVLIPVCWTAHAIIQDFYNPLVAEALKRELGASLYLGWAAAALLMLGGGLLCCTCPPPQVERPRGPRLGYSIPSRSGASGLDKRDYV
B5: AcGFP-tagged Claudin-12 (natural protein, UniProt P56749 1-244, looked up)
chain: MGCRDVHAATVLSFLCGIASVAGLFAGTLLPNWRKLRLITFNRNEKNLTVYTGLWVKCARYDGSSDCLMYDTTWYSSVDQLDLRVLQFALPLSMLIAMGALLLCLIGMCNTAFRSSVPNIKLAKCLVNSAGCHLVAGLLFFLAGTVSLSPSIWVIFYNIHLNKKFEPVFSFDYAVYVTIASAGGLFMTSLILFIWYCTCKSLPSPFWQPLYSHPPSMHTYSQPYSARSRLSAIEIDIPVVSHTT
B6: AcGFP-tagged Claudin-6 (natural protein, UniProt P56747 1-220, looked up)
chain: MASAGMQILGVVLTLLGWVNGLVSCALPMWKVTAFIGNSIVVAQVVWEGLWMSCVVQSTGQMQCKVYDSLLALPQDLQAARALCVIALLVALFGLLVYLAGAKCTTCVEEKDSKARLVLTSGIVFVISGVLTLIPVCWTAHAIIRDFYNPLVAEAQKRELGASLYLGWAASGLLLLGGGLLCCTCPSGGSQGPSHYMARYSTSAPAISRGPSEYPTKNYV
B7: Claudin-1 tagged with AcGFP or DsRED (natural protein, UniProt O95832 1-211, looked up)
chain: MANAGLQLLGFILAFLGWIGAIVSTALPQWRIYSYAGDNIVTAQAMYEGLWMSCVSQSTGQIQCKVFDSLLNLSSTLQATRALMVVGILLGVIAIFVATVGMKCMKCLEDDEVQKMRMAVIGGAIFLLAGLAILVATAWYGNRIVQEFYDPMTPVNARYEFGQALFTGWAAASLCLLGGALLCCSCPRKTTSYPTPRPYPKPAPSSGKDYV
B8: CD81 tagged with AcGFP or DsRED, P60033 1-236 (natural protein)
chain: T2 sequence (looked up)

Holding throughout (assay): FRET or BRET
In general terms: In BRET a luciferase serves as donor, and the signal depends on an acceptor being close.

Assay [1] addresses CD81 tagged with AcGFP or DsRED (UniProt P60033).
The target of another assay is T1, DsRED-tagged Occludin.
The target in assay [2] is B7.
In assay [3] the target is T2, CD81 tagged with AcGFP or DsRED.
In assay [4] the target is T3, CD81 tagged with AcGFP or DsRED, P60033. To be noted: remark: other sources report otherwise.

The results in this text go back to article PMC2898367 (The Journal of Biological Chemistry, 2010).

Consider “Claudin-1 tagged with AcGFP or DsRED (from UniProt O95832 1-211) (natural protein)”, for which, in assay [1], the %FRET stood at 25% and the %FRET (after 10 mM MβCD, 1 h) came out at 35%.
B1: in the assay with DsRED-tagged Occludin, the “%FRET” value amounted to 40%.
B2: the “%FRET” value in assay [2] was 18%.
On to B3, for which the “%FRET” value with DsRED-tagged Occludin was 23%.
Regarding B4, the “%FRET” value in assay [3] amounted to 63%; in the assay with DsRED-tagged Occludin, 18%; in assay [2] it was 18%.
For B5, the “%FRET” value with DsRED-tagged Occludin is 38%.
Take B6: the “%FRET” value in assay [3] amounted to 50%; in the assay with DsRED-tagged Occludin, 27%; in assay [2] it was 31%.
As to B7, in the assay with DsRED-tagged Occludin, the “%FRET” value turned out to be 48%.
In assay [4], B8 showed a %FRET (after 10 mM MβCD, 1 h) of 55% and a %FRET (untreated cells) of 63%.
